Assay results as given in patent US8906844B2 (SYNTONIX PHARMACEUTICALS, dated 2014).
Positions of bridges follow the written chain, without caps; N, C: chain ends. Non-standard residues stand in square brackets, D forms with d. No end group written: not given here. Pen = CC(C)(S)[C@H](N)C(=O)O; βAla = NCCC(=O)O

B1: Peptide No. 25 (peptide)
peptide: QRFCGHF[βAla]LYPCNGP-NH2
modifications: disulfide 4-12; N-terminus assumed
SMILES: CC(C)C[C@@H]1NC(=O)CCNC(=O)[C@H](Cc2ccccc2)NC(=O)[C@H](Cc2c[nH]cn2)NC(=O)CNC(=O)[C@@H](NC(=O)[C@H](Cc2ccccc2)NC(=O)[C@H](CCCNC(=N)N)NC(=O)[C@@H](N)CCC(N)=O)CSSC[C@@H](C(=O)N[C@@H](CC(N)=O)C(=O)NCC(=O)N2CCC[C@H]2C(N)=O)NC(=O)[C@@H]2CCCN2C(=O)[C@H](Cc2ccc(O)cc2)NC1=O
notes: printed QRFCGHF-betaAla-LYPCNGP (no Thr)
B2: Peptide No. 49 (peptide)
peptide: QRFXTGHFXGLYPCNGP
modifications: Pen4; D-Arg9; disulfide; C-terminal amide
B3: Peptide No. 280 (peptide)
peptide: RFXTGHFGXXYPC
modifications: sequence analogous to Peptide No. 235; C-termini joined through a branching Lys (Fmoc-Lys(Fmoc)-OH); intrachain disulfide
notes: dimer
B4: Peptide No. 53 (peptide)
peptide: QRFXTGHFXGLYPCNGP
modifications: Pen4; D-Tyr9; disulfide; C-terminal amide
B5: Peptide No. 167 (peptide)
peptide: QRFVTGHFG[dP]LYPVNGP-NH2
modifications: N-terminus assumed
SMILES: CC(C)C[C@H](NC(=O)[C@H]1CCCN1C(=O)CNC(=O)[C@H](Cc1ccccc1)NC(=O)[C@H](Cc1c[nH]cn1)NC(=O)CNC(=O)[C@@H](NC(=O)[C@@H](NC(=O)[C@H](Cc1ccccc1)NC(=O)[C@H](CCCNC(=N)N)NC(=O)[C@@H](N)CCC(N)=O)C(C)C)[C@@H](C)O)C(=O)N[C@@H](Cc1ccc(O)cc1)C(=O)N1CCC[C@H]1C(=O)N[C@H](C(=O)N[C@@H](CC(N)=O)C(=O)NCC(=O)N1CCC[C@H]1C(N)=O)C(C)C
B6: Peptide No. 171 (peptide)
peptide: QRFVTGHFGXLYPYNGP
modifications: D-Pro10; unbridged; C-terminal amide
B7: Peptide No. 174 (peptide)
peptide: QRFVTGHFG[dP]IYPANGP-NH2
modifications: N-terminus assumed
SMILES: CC[C@H](C)[C@H](NC(=O)[C@H]1CCCN1C(=O)CNC(=O)[C@H](Cc1ccccc1)NC(=O)[C@H](Cc1c[nH]cn1)NC(=O)CNC(=O)[C@@H](NC(=O)[C@@H](NC(=O)[C@H](Cc1ccccc1)NC(=O)[C@H](CCCNC(=N)N)NC(=O)[C@@H](N)CCC(N)=O)C(C)C)[C@@H](C)O)C(=O)N[C@@H](Cc1ccc(O)cc1)C(=O)N1CCC[C@H]1C(=O)N[C@@H](C)C(=O)N[C@@H](CC(N)=O)C(=O)NCC(=O)N1CCC[C@H]1C(N)=O
B8: Peptide No. 172 (peptide)
peptide: QRFVTGHFGXLYPWNGP
modifications: D-Pro10; unbridged; C-terminal amide
B9: Peptide No. 176 (peptide)
peptide: QRFVTGHFG[dP]YYPANGP-NH2
modifications: N-terminus assumed
SMILES: CC(C)[C@H](NC(=O)[C@H](Cc1ccccc1)NC(=O)[C@H](CCCNC(=N)N)NC(=O)[C@@H](N)CCC(N)=O)C(=O)N[C@H](C(=O)NCC(=O)N[C@@H](Cc1c[nH]cn1)C(=O)N[C@@H](Cc1ccccc1)C(=O)NCC(=O)N1CCC[C@@H]1C(=O)N[C@@H](Cc1ccc(O)cc1)C(=O)N[C@@H](Cc1ccc(O)cc1)C(=O)N1CCC[C@H]1C(=O)N[C@@H](C)C(=O)N[C@@H](CC(N)=O)C(=O)NCC(=O)N1CCC[C@H]1C(N)=O)[C@@H](C)O
B10: Peptide No. 175 (peptide)
peptide: QRFVTGHFG[dP]FYPANGP-NH2
modifications: N-terminus assumed
SMILES: CC(C)[C@H](NC(=O)[C@H](Cc1ccccc1)NC(=O)[C@H](CCCNC(=N)N)NC(=O)[C@@H](N)CCC(N)=O)C(=O)N[C@H](C(=O)NCC(=O)N[C@@H](Cc1c[nH]cn1)C(=O)N[C@@H](Cc1ccccc1)C(=O)NCC(=O)N1CCC[C@@H]1C(=O)N[C@@H](Cc1ccccc1)C(=O)N[C@@H](Cc1ccc(O)cc1)C(=O)N1CCC[C@H]1C(=O)N[C@@H](C)C(=O)N[C@@H](CC(N)=O)C(=O)NCC(=O)N1CCC[C@H]1C(N)=O)[C@@H](C)O
B11: Peptide No. 169 (peptide)
peptide: QRFVTGHFG[dP]LYPINGP-NH2
modifications: N-terminus assumed
SMILES: CC[C@H](C)[C@H](NC(=O)[C@@H]1CCCN1C(=O)[C@H](Cc1ccc(O)cc1)NC(=O)[C@H](CC(C)C)NC(=O)[C@H]1CCCN1C(=O)CNC(=O)[C@H](Cc1ccccc1)NC(=O)[C@H](Cc1c[nH]cn1)NC(=O)CNC(=O)[C@@H](NC(=O)[C@@H](NC(=O)[C@H](Cc1ccccc1)NC(=O)[C@H](CCCNC(=N)N)NC(=O)[C@@H](N)CCC(N)=O)C(C)C)[C@@H](C)O)C(=O)N[C@@H](CC(N)=O)C(=O)NCC(=O)N1CCC[C@H]1C(N)=O
B12: Peptide No. 286 (peptide)
peptide: RFXTGHFGXXYPC
modifications: Pen3; Sar9; NMeLeu10; intrachain disulfide; N-termini joined by Glu (from Boc-Glu(OH)-OH) with a free amine; C-terminal amide
B13: Peptide No. 96 (peptide)
peptide: QRXXTGHFGGLYPCNGP
modifications: D-Phe3; Pen4; disulfide; C-terminal amide
B14: Peptide No. 30 (peptide)
peptide: QRFCTGHFGGLYPXNGP
modifications: D-Cys14; disulfide; C-terminal amide
B15: Peptide No. 151 (peptide)
peptide: QRF[Pen]TGHF[dF][dA]LYPCNGP-NH2
modifications: disulfide 4-14; N-terminus assumed
SMILES: CC(C)C[C@@H]1NC(=O)[C@@H](C)NC(=O)[C@@H](Cc2ccccc2)NC(=O)[C@H](Cc2ccccc2)NC(=O)[C@H](Cc2c[nH]cn2)NC(=O)CNC(=O)[C@H]([C@@H](C)O)NC(=O)[C@@H](NC(=O)[C@H](Cc2ccccc2)NC(=O)[C@H](CCCNC(=N)N)NC(=O)[C@@H](N)CCC(N)=O)C(C)(C)SSC[C@@H](C(=O)N[C@@H](CC(N)=O)C(=O)NCC(=O)N2CCC[C@H]2C(N)=O)NC(=O)[C@@H]2CCCN2C(=O)[C@H](Cc2ccc(O)cc2)NC1=O
B16: Peptide No. 279 (peptide)
peptide: RFXTGHFGXXYPC
modifications: Pen3; Sar9; NMeLeu10; intrachain disulfide; N-termini joined by Bis-dPEG6 diacid linker; C-terminal amide
B17: Peptide No. 287 (peptide)
peptide: RFXTGHFGXXYPCG
modifications: Pen3; Sar9; NMeLeu10; intrachain disulfide; C-termini joined through a branching Lys
notes: dimer made as Peptide No. 280
B18: Peptide No. 289 (peptide)
peptide: RFXTGHFGXXYPC
modifications: Pen3; Sar9; NMeLeu10; intrachain disulfide; N-termini joined by Asp; linker amine acylated with PEG 30 kDa succinimidyl ester; C-terminal amide
notes: also called pegylated analog of Peptide No. 285
B19: Peptide No. 295 (peptide)
peptide: QRFXTGHFGXLYPXNGP
modifications: Pen4; D-Pro10; Pen14; disulfide; C-terminal amide
B20: Peptide No. 26 (peptide)
peptide: QRFCTGHFGGLFPCNGP
modifications: disulfide; C-terminal amide
B21: Peptide No. 288 (peptide)
peptide: RFXTGHFGXXYPCGG
modifications: Pen3; Sar9; NMeLeu10; intrachain disulfide; C-termini joined through a branching Lys
notes: dimer made as Peptide No. 280
B22: Peptide No. 111 (peptide)
peptide: QRFXTGHFXGLYPCNGP
modifications: Pen4; Sar9; disulfide; C-terminal amide
B23: Peptide No. 203 (peptide)
peptide: QRFXTGHFXPLYPCNGP
modifications: Pen4; D-Phe9; disulfide; C-terminal amide
B24: Peptide No. 266 (peptide)
peptide: RFXTGAFGXXYPC
modifications: Pen3; Sar9; NMeLeu10; disulfide; C-terminal amide
B25: Peptide No. 211 (peptide)
peptide: FVTGHFG[dP]WYPA-NH2
modifications: N-terminus assumed
SMILES: CC(C)[C@H](NC(=O)[C@@H](N)Cc1ccccc1)C(=O)N[C@H](C(=O)NCC(=O)N[C@@H](Cc1c[nH]cn1)C(=O)N[C@@H](Cc1ccccc1)C(=O)NCC(=O)N1CCC[C@@H]1C(=O)N[C@@H](Cc1c[nH]c2ccccc12)C(=O)N[C@@H](Cc1ccc(O)cc1)C(=O)N1CCC[C@H]1C(=O)N[C@@H](C)C(N)=O)[C@@H](C)O
B26: Peptide No. 142 (peptide)
peptide: RFXTGHFGXLYPC
modifications: Pen3; D-Pro9; disulfide; C-terminal amide
B27: Peptide No. 105 (peptide)
peptide: QRFDTGHFGXLYPKNGP
modifications: D-Ala10; lactam bridge Asp4-Lys14 side chains; C-terminal amide

What follows are binders tested against T1, soluble human FcRn (shFcRn) (human, UniProt P55899 24-297; P61769 21-119, biotinylated with Sulfo-NHS-LC-Biotin in the ELISA; amine-coupled to a CM5 chip in SPR) (assay: competition ELISA vs human IgG).
T1 construct: also called biotinylated shFcRn
Description: The wells were coated with 100 μl/well of 1 μg/ml biotinylated-shFcRn in Buffer A. The plate was sealed and incubated at 37° C. for 2 hours. Afterwards, the plate was washed with 200 μl/well of Buffer B (Buffer B: 100 mM MES pH 6, 150 mM NaCl, 0.5% BSA IgG-free (Jackson ImmunoResearch, West Grove, Pa.), 0.05% Tween-20). […] To allow for mixing, the plate was rocked for 2 minutes, sealed and incubated at 37° C. for 2 hours. […] The plate was covered, incubated for 30 minutes at room temperature and washed 4 times with 200 μl/well of ice-cold buffer B. SureBlue TMB substrate solution (100 μl/well, KPL, Gaithersburg, Md.) was added and the plate was allowed to incubate at room temperature until color developed, which took 5 to 10 minutes. Once color developed, 100 μl/well of TMB stop solution (KPL, Gaithersburg, Md.) was added and the absorbance was measured at 450 nm.

Row | IC50 [µM] | Binder
1 | > 125 | B1
2 | 4.1 | B2
3 | 0.025 | B3
4 | 3.2 | B4
5 | 93 | B5
6 | 150 | B6
7 | 94 | B7
8 | 150 | B8
9 | 230 | B9
10 | 200 | B10
11 | 72 | B11
12 | 0.0056 | B12
13 | 11.4 | B13
14 | 125 | B14
15 | 4.3 | B15
16 | 0.007 | B16
17 | 0.02 | B17
18 | 0.018 | B18
19 | 1.6 | B19
20 | > 125 | B20
21 | 0.016 | B21

What follows are binders tested against T1, soluble human FcRn (shFcRn) (assay: SPR, pH 6).
Description: The following steps were performed to cross-link soluble human or cynomolgus FcRn to the dextran surface of a CM5 sensor chip (Biacore AB, Uppsala, Sweden) by an amine coupling reaction involving 1-ethyl-(3-dimethylaminopropyl)-carbodiimide hydrochloride (EDC) (Biacore AB, Uppsala, Sweden) and N-hydroxysuccinimide (NHS) (Biacore AB, Uppsala, Sweden) as recommended by Biacore (BIAapplications Handbook, version AB, section 4.2, Biacore AB, Uppsala, Sweden). The FcRn protein was diluted in 50 mM sodium acetate, pH 4.5 (Biacore AB, Uppsala, Sweden) to a concentration of 10 to 30 µg/ml and used to coat one flow cell on the sensor chip. Residual sites on the FcRn flow cell were blocked with 1 M ethanolamine hydrochloride pH 8.5 (Biacore AB, Uppsala, Sweden). A control flow cell was blocked with ethanolamine for reference subtraction. For analysis of the monomeric peptides, FcRn was coated to a final density of 4000-5000 response units (RU). For analysis of the peptide dimers, FcRn was coated to a density of 2000-2500 RU. All SPR measurements were performed using a BIACORE 3000 Instrument (Biacore AB Uppsala, Sweden). For measurements done at either pH 6 or pH 7.4, experiments were performed in 50 mM phosphate, 100 mM sodium chloride, 0.01% surfactant P20 (Biacore AB, Uppsala, Sweden).
A. Representative Procedure for the Determination of Binding Constant of Monomeric Peptides Ten 2-fold dilutions of the peptide were injected over the FcRn-CM5 chip at a rate of 20 µl/min for 2 min. The peptide was dissociated from the chip for 2.5 minutes with buffer. Any remaining peptide was removed from the chip with a 30 second injection of HBS-P buffer (Biacore AB, Uppsala, Sweden) at a rate of 30 µl/min. Sensorgrams were generated and analyzed using BiaEval software version 3.1 (Biacore AB, Uppsala, Sweden). The equilibrium RU observed for each injection was plotted against concentration. The equilibrium K_D values were derived by analysis of the plots using the steady state affinity model included in the BiaEval software.

Row | Kd [µM] | Binder
22 | 2 | B22
23 | 3.8 | B23
24 | 9.9 | B24
25 | 8 | B25
26 | 0.14 | B26
27 | 2.1 | B27
28 | 0.28 | B19
